In PMC7594292, “Two conformations of DNA polymerase D-PCNA-DNA, an archaeal replisome complex, revealed by cryo-electron microscopy” (BMC Biology, 2020):
Values belong to the molecule of their own block, whether it stands above or below them.

Key:
[1] = target: Thermococcus kodakarensis proliferating cell nuclear antigen PCNA1 (TkoPCNA), homotrimer (UniProt Q5JF32); assay: SPR; settings: PCNA immobilized on a sensor chip, PolD at 500 nM, read off a plot
[2] = target: T1, Thermococcus kodakarensis DNA polymerase D (PolD), wild type, DP1-DP2 heterodimer (Thermococcus kodakarensis); assay: SPR
[3] = target: T2, PolDΔPIPΔKR: PolD with DP1(K326A K328A) and DP2(K432A R434A R781A, Δ1314-1324) (Thermococcus kodakarensis, UniProt Q5JET0 1-1313, K432A | R434A | R781A, DP1 residue 328 is Ala (wild type printed as both K328 and R328, so the Ala is spliced in). DP2 is the mature intein-free form, residues 1-1313 (PIP box 1314-1324 deleted; mature 1313 = precursor …); assay: SPR
[4] = target: T3, PolDΔPIP: PolD with DP2(Δ1314-1324) (Thermococcus kodakarensis); assay: SPR
[5] = target: T4, PolDΔKR: PolD with DP1(K326A K328A) and DP2(K432A R434A R781A) (Thermococcus kodakarensis, DP1 residue 328 is Ala (wild type printed as both K328 and R328, so the Ala is spliced in; the mutagenic primer encodes Ala-Val-Ala at 326-328). DP2 is the mature intein-free form (1324 aa). Zn bound …); assay: SPR
[6] = target: the molecule itself; assay: cryo-EM structure; PolD-PCNA-primed DNA complex reconstituted from purified proteins without Mg2+ and isolated by gel filtration; Form A with DNA (25/35) at 6.9 Å, Form A and Form B with DNA (30/45); crystal structures and homology models fitted
[7] = target: T1, Thermococcus kodakarensis DNA …; assay: SPR; remark: listed apart in the source
[8] = target: T2, PolDΔPIPΔKR: PolD with DP1(K326A K328A) …; assay: SPR; remark: listed apart in the source
[9] = target: T3, PolDΔPIP: PolD with DP2(Δ1314-1324); assay: SPR; remark: listed apart in the source
[10] = target: T4, PolDΔKR: PolD with DP1(K326A K328A) and …; assay: SPR; remark: listed apart in the source
[11] = target: DP1 (PolD small subunit);DP2 (PolD large subunit);TkoPCNA (PCNA1) (Thermococcus kodakarensis;Thermococcus …, UniProt Q5JET1;Q5JET0;Q5JET0;Q5JF32 1-735;1-963;1438-1798;1-249, ||); assay: gel filtration; 50 mM NaCl elution; EMSA: 20 mM Tris-HCl pH 8.0, 10 mM KCl, 10 mM (NH4)2SO4, 1 mM DTT, 0.1 mg/ml BSA, 2 mM MgCl2, 40 C 10 min, 0.8% agarose 0.1x TAE; EM complex: 50 mM Tris-HCl pH; settings: protein: recombinant;recombinant;recombinant; tags: ;;; copies: 1;1;1;3; primer-template, 5' overhang 15 nt on template
Chain of DP1 (PolD small subunit);DP2 (PolD large subunit);TkoPCNA (PCNA1) (Q5JET0 1-963, one chain of several): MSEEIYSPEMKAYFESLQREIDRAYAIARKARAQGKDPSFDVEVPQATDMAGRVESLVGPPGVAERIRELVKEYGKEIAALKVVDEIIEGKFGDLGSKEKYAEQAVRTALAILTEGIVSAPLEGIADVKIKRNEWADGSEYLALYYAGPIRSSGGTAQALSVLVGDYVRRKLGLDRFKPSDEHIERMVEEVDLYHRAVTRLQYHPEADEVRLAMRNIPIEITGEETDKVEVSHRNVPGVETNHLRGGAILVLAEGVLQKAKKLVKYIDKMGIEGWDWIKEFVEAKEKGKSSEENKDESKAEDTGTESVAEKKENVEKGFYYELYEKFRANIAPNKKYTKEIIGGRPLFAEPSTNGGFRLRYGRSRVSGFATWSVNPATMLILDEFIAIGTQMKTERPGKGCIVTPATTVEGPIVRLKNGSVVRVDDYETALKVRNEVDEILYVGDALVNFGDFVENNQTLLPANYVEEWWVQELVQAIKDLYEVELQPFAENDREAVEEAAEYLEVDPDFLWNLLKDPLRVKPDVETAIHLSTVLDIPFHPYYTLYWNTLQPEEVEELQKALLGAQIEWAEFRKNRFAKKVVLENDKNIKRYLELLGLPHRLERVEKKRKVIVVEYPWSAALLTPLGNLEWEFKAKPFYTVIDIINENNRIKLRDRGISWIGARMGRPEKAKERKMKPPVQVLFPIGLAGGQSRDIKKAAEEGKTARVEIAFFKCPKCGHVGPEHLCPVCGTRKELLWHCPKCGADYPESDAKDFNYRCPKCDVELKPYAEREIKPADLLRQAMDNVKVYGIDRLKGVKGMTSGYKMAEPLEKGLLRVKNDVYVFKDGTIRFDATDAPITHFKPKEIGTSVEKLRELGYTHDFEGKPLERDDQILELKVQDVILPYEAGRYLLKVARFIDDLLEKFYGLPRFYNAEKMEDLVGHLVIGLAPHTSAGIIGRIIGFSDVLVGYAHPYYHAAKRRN

[12] = target: T5, DP1 (PolD small subunit);DP2CTD (Thermococcus kodakarensis;Thermococcus …, UniProt Q5JET1;Q5JET0 1-735;1474-1798, |); assay: EMSA; 2 mM MgCl2; EMSA: 20 mM Tris-HCl pH 8.0, 10 mM KCl, 10 mM (NH4)2SO4, 1 mM DTT, 0.1 mg/ml BSA, 2 mM MgCl2, 40 C 10 min, 0.8% agarose 0.1x TAE; EM complex: 50 mM Tris-HCl pH; settings: protein: recombinant;recombinant; tags: ;His; copies: 1;1; label: 5' Cy5 on primer; primer-template, 5' overhang 13 nt on template
T5 sequence 1: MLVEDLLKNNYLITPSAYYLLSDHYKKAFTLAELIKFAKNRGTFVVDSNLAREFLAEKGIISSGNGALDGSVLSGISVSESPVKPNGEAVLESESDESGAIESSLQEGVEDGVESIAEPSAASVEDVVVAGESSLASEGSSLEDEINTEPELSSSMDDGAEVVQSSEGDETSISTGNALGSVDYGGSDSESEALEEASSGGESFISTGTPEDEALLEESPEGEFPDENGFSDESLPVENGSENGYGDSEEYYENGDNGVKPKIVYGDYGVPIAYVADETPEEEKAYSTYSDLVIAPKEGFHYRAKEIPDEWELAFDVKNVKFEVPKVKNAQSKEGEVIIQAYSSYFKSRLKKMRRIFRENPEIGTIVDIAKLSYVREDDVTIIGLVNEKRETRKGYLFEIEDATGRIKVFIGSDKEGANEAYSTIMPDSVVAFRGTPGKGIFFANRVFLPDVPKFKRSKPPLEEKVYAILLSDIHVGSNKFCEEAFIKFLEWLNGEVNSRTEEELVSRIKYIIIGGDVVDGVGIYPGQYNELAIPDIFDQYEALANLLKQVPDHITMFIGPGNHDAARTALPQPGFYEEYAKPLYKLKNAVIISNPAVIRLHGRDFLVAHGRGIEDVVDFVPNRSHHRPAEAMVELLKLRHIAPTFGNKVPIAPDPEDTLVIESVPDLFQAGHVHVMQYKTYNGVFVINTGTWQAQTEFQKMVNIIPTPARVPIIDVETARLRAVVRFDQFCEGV
T5 sequence 2: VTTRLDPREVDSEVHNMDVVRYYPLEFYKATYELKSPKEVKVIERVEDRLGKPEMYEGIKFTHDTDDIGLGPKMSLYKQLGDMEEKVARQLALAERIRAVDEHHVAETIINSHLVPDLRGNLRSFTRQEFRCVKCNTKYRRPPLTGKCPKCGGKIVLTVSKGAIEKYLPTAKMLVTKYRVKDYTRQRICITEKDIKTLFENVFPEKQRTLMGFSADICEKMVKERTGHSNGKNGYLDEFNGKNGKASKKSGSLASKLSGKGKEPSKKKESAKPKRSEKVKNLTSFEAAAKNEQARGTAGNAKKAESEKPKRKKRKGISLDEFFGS

DP2CTD = target: T6, DP2CTD (Thermococcus kodakarensis, UniProt Q5JET0 1474-1798); assay: EMSA; 2 mM MgCl2; readily detectable but weaker than DP1-DP2CTD; EMSA: 20 mM Tris-HCl pH 8.0, 10 mM KCl, 10 mM (NH4)2SO4, 1 mM DTT, 0.1 mg/ml BSA, 2 mM MgCl2, 40 C 10 min, 0.8% agarose 0.1x TAE; EM complex: 50 mM Tris-HCl pH; settings: protein: recombinant; tags: His; label: 5' Cy5 on primer; primer-template, 5' overhang 13 nt on template
T6 sequence: T5 sequence 2

response ([1]; parent: est. 700): 150 RU
Molecule: PolDΔPIP: PolD with DP2(Δ1314-1324) DP1:K326A; DP1:K328A; DP2:K432A; DP2:R434A; DP2:R781A

response ([1]; parent: est. 1050): 450 RU
Molecule: Thermococcus kodakarensis DNA polymerase D (PolD), wild type, DP1-DP2 heterodimer DP1:K326A; DP1:K328A; DP2:K432A; DP2:R434A; DP2:R781A

koff [2]: 0.0048 s⁻¹ | koff [3]: 0.016 s⁻¹ | koff [4]: 0.006 s⁻¹ | Kd [7]: 0.48 µM | Kd [8]: 12 µM | Kd [9]: 1.3 µM
B1: Thermococcus kodakarensis proliferating cell nuclear antigen PCNA1 (TkoPCNA), homotrimer (natural protein)
chain: MPFEVVFDGAKEFADLIATASNLIDEAAFKFTEEGISMRAMDPSRVVLIDLNLPESIFSKYEVEEPETIGINMDQFKKILKRGKAKDTLILRKGDENFLEITFEGTAKRTFRLPLIDVEELELELPELPFTAKVVLLGEVLKEGIKDASLVSDAIKFIAKENEFTMKAEGETNEVEIRLTLEDEGLLDLEVEEETKSAYGIRYLSDMVKGIGKADEVILRFGNEMPLQMEYMIRDEGRLTFLLAPRVEE
notes: source: purified as described previously [23]
koff [5]: 0.0087 s⁻¹ | stoichiometry N [6]: 3 | Kd [10]: 4.5 µM

B2: primed DNA (30/45) (dsDNA)
DNA 1: CGAACTGCCTGGAATCCTGACGACATGTAG
DNA 2: TGAGGTGATCGTTCGCTACATGTCGTCAGGATTCCAGGCAGTTCG
modifications: four successive phosphorothioates near the 3' end of both strands
binding result [11]: binds

B3: primed DNA Cy5-pri32/temp45 (dsDNA)
DNA 1: CGAACTGCCTGGAATCCTGACGACATGTAGCG
DNA 2: B2 DNA 2
binding result [12]: binds | binding result (DP2CTD): binds
